Reference: patent publication US20100248978A1, “METHOD FOR IDENTIFYING THE INTERACTION PARTNER OF AN ACTIVE AGENT” (Bayer Cropscience AG, priority 2007, published 2010)

B1: S116C-C18 (nucleic acid)
DNA: GGGAGAGGAGGGAGAUAGAUAUCAAUAUCGCCACGUUACGAGUACCAAGCUUUAUUUCCGCAGCCCGAUAGAGUUUGUCCUCACGGUGGAUGG
modifications: chemistry not given here
B2: S116B-C4: monoclonal RNA aptamer, specific ligand to HPPD from competitive SELEX S116B, SEQ. ID. No. 4 (nucleic acid)
chain: GGGAGAGGAGGGAGAUAGAUAUCAAGUAACAAAUGAUACUUUCCAAGCAUAAUUCAUUCGCAGCCCGAAUUAAGUUUGUCCUCACGGUGGAUGG
modifications: RNA, backbone not given here
B3: S115A-C1: monoclonal RNA aptamer binding HPPD from classical SELEX run S115A, SEQ. ID. No. 2 (nucleic acid)
chain: GGGAGAGGAGGGAGAUAGAUAUCAACAAUGACUAGCCGUGUAAGUGGUCUCGUACAUCCGAAAAAGACGACCCAGUUUGUCCUCACGGUGGAUGG
modifications: listed as RNA, chemistry not given here
B4: S116D-C8: monoclonal RNA aptamer, specific ligand to HPPD from competitive SELEX S116D, SEQ. ID. No. 5 (nucleic acid)
chain: GGGAGAGGAGGGAGAUAGAUAUCAAUAAAGUCGGUGACACCACGCAUCCAAAUACCGGUACGCGGAACUAAUAGUUUGUCCUCACGGUGGAUGG
modifications: RNA, backbone not given here

Columns and labels:
recombinant HPPD = target: T1, recombinant HPPD (Arabidopsis thaliana, UniProt P93836); assay: pull down of recombinant HPPD with biotinylated aptamers immobilised on streptavidin beads (SDS-PAGE); format: binding; settings: for pull down of HPPD (protein band on SDS-PAGE): 10 μg of HPPD, in the absence of protein extract
T1 construct: His-tag
T1 sequence (P93836 1-445): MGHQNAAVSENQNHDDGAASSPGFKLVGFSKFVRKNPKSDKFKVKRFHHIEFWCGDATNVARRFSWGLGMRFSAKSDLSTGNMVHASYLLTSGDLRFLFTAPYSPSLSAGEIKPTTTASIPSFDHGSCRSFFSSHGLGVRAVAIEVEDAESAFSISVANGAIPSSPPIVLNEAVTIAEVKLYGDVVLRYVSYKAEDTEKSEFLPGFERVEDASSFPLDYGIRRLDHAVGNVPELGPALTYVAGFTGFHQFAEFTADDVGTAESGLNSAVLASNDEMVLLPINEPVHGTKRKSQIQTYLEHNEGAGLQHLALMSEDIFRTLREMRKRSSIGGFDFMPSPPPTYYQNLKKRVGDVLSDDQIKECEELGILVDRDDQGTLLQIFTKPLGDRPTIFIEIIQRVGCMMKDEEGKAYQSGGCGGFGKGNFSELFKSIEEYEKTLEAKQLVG
Excerpt: To confirm the concept that aptamers isolated using the competitive SELEX approach can be used to identify the interaction partner of interest, the two tightly binding aptamers S116C-C18 and S116D-C8, henceforth referred to as anti-HPPD aptamers, were biotinylated by in vitro transcription, using the appropriate DNA template and biotinylated ApG starter nucleotides (IBA, Göttingen) (Pitulle C. et al. (1992), Gene, 112(1):101-5; Gaur R. K. et al. (2004), Methods Mol. Biol. 252:9-17) and immobilised on paramagnetic streptavidin (SA) beads.
By contrast, the protein band assigned to HPPD was not visible when negative controls (beads only and N47α immobilised on beads) were used.

[1] = target: T2, recombinant, His-tagged HPPD (p-hydroxyphenylpyruvate dioxygenase) (Arabidopsis thaliana, UniProt P93836); assay: nitrocellulose filter retention assay, binding of radioactively labelled RNA to recombinant HPPD; settings: monoclonal aptamer, recombinant HPPD at various concentrations; read-out: dissociation constant
T2 construct: His-tag
T2 sequence (P93836 1-445): T1 sequence (P93836 1-445)
Method: Recombinant, His-tagged HPPD was targeted as an interaction partner in two SELEX runs, referred to as S115A and S115E, which comprised 12 and 9 cycles, respectively. Briefly, the protein was biotinylated and exposed to the RNA library with a 47 nucleotide random region (N47α) in 20 mM Hepes (pH 7.4), 150 mM NaCl, 3 mM MgCl2, and 1 mg/ml BSA (in vitro selection 5115A) or 20 mM Hepes (pH 7.4), 150 mM NaCl, 3 mM MgCl2, 10% DMSO and 1 mg/ml BSA (in vitro selection S115B). The library N47α consists of a random region of 47 nucleotides which is flanked by fixed sequences at the 5′ and 3′ end that serve as primer annealing sites for the amplification of the selected aptamer sequences via reverse transcription and PCR. The 5′ region additionally contains the sequence of an T7-RNA polymerase promoter that enables the transcription of the PCR DNA template into RNA. The sense sequence of the PCR DNA template is “5″-[…]-N47-[…]-3′ (SEQ. ID No. 1). The T7-RNA polymerase promoter is underlined. The double stranded DNA template was used to transcribe the initial RNA library. The procedures to produce an RNA library and to perform a SELEX experiment are well known to a person skilled in the art and described in, e.g., Methods in Enzymology, Vol 267, Combinatorial Chemistry (1996), Abelson J. N. and Simon M. I., eds. Academic Press, San Diego. Subsequently, the complexes between target and RNA were captured on streptavidin-coated beads and unbound RNA was removed by washing with binding buffer. […] RNA bound to the target protein is retained within the complex on the filter and was quantified by a phosphoimager. Values were calculated as the percentage of total radiolabeled RNA in the reaction.
(§1) The dissociation constant (FIG. 4B) was determined to be 128±11 nM. consistent with strong binding to S115A-C1 to recombinant HPPD.
To determine the binding properties of individual aptamers isolated as part of the mixture of aptamers binding to HPPD in the previous example, aptamers were cloned into a vector, and 24 clones were sequenced. For each experiment out of S116B, S116C and S116D, one of the cloned aptamers subsequently identified as specific ligands to HPPD (termed S116C-C18 (5″-GGGAGAGGAGGGAGAUAGAUAUCAAUAUCGCCACGUUACGAGUACCAAGCUULJ […]-3″ (SEQ. ID. No. 3)), S116B-C4 (5′-[…] UGG-3′ (SEQ. ID. No. 4)) and S116D-C8 (5″-GGGAGAGGAGGG […]-3′) (SEQ. ID. No. 5)) was analysed with respect to the thermodynamics of the binding. […] The dissociation constants determined for S116B-C4, S116C-C18 and S116D-C8, were 740±39, 832±39 and 120±9 nM, respectively, consistent with the view that decreasing the concentration of the interaction partner to 2 pM (experiment S116D) actually yield the most tightly binding aptamer.

control proteins = assay: nitrocellulose filter retention assay with control proteins as negative controls; format: binding; settings: HPPD replaced by an equivalent concentration of control proteins
Method: Recombinant, His-tagged HPPD was targeted as an interaction partner in two SELEX runs, referred to as S115A and S115E, which comprised 12 and 9 cycles, respectively. Briefly, the protein was biotinylated and exposed to the RNA library with a 47 nucleotide random region (N47α) in 20 mM Hepes (pH 7.4), 150 mM NaCl, 3 mM MgCl2, and 1 mg/ml BSA (in vitro selection 5115A) or 20 mM Hepes (pH 7.4), 150 mM NaCl, 3 mM MgCl2, 10% DMSO and 1 mg/ml BSA (in vitro selection S115B). The library N47α consists of a random region of 47 nucleotides which is flanked by fixed sequences at the 5′ and 3′ end that serve as primer annealing sites for the amplification of the selected aptamer sequences via reverse transcription and PCR. The 5′ region additionally contains the sequence of an T7-RNA polymerase promoter that enables the transcription of the PCR DNA template into RNA. The sense sequence of the PCR DNA template is “5″-[…]-N47-[…]-3′ (SEQ. ID No. 1). The T7-RNA polymerase promoter is underlined. The double stranded DNA template was used to transcribe the initial RNA library. […] RNA bound to the target protein is retained within the complex on the filter and was quantified by a phosphoimager. Values were calculated as the percentage of total radiolabeled RNA in the reaction.
as §1

endogenous HPPD = target: T3, endogenous HPPD (Arabidopsis thaliana, UniProt P93836); assay: pull down of endogenous HPPD from protein extract with immobilised aptamer (SDS-PAGE); format: binding; settings: protein extract only as the source of HPPD, no recombinant protein added
T3 construct: pull down endogenous HPPD in protein extract, i.e. no recombinant protein was added; from tissue; host or cells: protein extract from freeze-dried powder of Arabidopsis thaliana
T3 sequence (P93836 1-445): T1 sequence (P93836 1-445)
Method: For a realistic proof of principle scenario representing attempts to identify an unknown interaction partner, biotinylated aptamer S116D-C8 was immobilised and used in attempts to pull down endogenous HPPD in protein extract, i.e. no recombinant protein was added. Again, appropriate controls such as N47α as a negative control and S116D-C8 together with recombinant HPPD were included.

| Molecule | pull down of HPPD (protein band on SDS-PAGE) (recombinant HPPD) | Kd [1] [nM] | binding to / retention by control proteins (control proteins) | pull down of endogenous HPPD (protein band on SDS-PAGE) (endogenous HPPD) | pull down of recombinant HPPD (protein band on SDS-PAGE) (recombinant HPPD; different amounts of HPPD, in the presence of increasing amounts of PE) |
| --- | --- | --- | --- | --- | --- |
| B1 | could be used to pull down HPPD | 832 ± 39 | – | – | – |
| B2 | – | 740 ± 39 | – | – | – |
| B3 | – | 128 ± 11 | not by any of the control proteins | – | – |
| B4 | could be used to pull down HPPD | 120 ± 9 | – | a protein band was visually detectable | could be used to purify conveniently detectable amounts of HPPD |
